The target of series [1] is T1, alpha-thrombin (Homo sapiens, UniProt P00734;P00734 P00734:328-363,P00734:364-622). Kind of series: FP; 140 mM NaCl, 20 mM Tris acetate, 1 mM CaCl2, 5 mM KCl, 1 mM MgCl2, pH 7.4, room temperature; delta mP +80.
For series [2], the target named is T2, serum albumin (HSA) (Homo sapiens, UniProt P02768 P02768:25-609). Kind of series: FP; HSA up to 660 nM. The conditions noted are these: tags: Sigma; label: 5'-thiazole orange (C3 linker). The procedure: (§1) The fluorescence polarization of the reaction mixtures was measured directly using 12×75 mm borosilicate glass test tubes. The maximum change in fluorescence polarization was reported as ΔmP (millipolarization units). As reported below in Table 1, the data represent the average of three readings at ambient temperature.

Series [3] deals with T1, alpha-thrombin. Put plainly: FP; 140 mM NaCl, 20 mM Tris acetate, 1 mM CaCl2, 5 mM KCl, 1 mM MgCl2, pH 7.4, room temperature; delta mP +55.
Series [4] deals with T2, serum albumin (HSA). Kind of series: FP; HSA up to 1080 nM. Particulars: tags: Sigma; label: fluorescein tethered at the T7 phosphorothioate via iodoacetamide. The procedure:
A thrombin solution was prepared at 600 nM for the highest concentration in the same buffer as was used for Compound 1 in Example 3. Serial dilutions of this solution were then prepared to give a range of concentrations from 0.045 nM to 600 nM.
Compound 6 was then added to a sample of each dilution of thrombin solution and HSA solution to a concentration of 2.3 nM, then vortexed and let stand at room temperature for 15 minutes before fluorescence measurement was taken as described in Example 3. The data from the measurements is presented below as the average of three readings at ambient temperature.

Series [5] deals with T1, alpha-thrombin. Kind of series: FP; no detectable binding; anisotropy 0.0403 free, 0.0445 with thrombin.
For series [6], the target named is T2, serum albumin (HSA). Put plainly: FP; no detectable binding by fluorescence anisotropy. The conditions noted are these: tags: Sigma; label: fluorescein (C6 linker). The procedure: Compound 4 was the control prepared in Example 1, and as such was added to the thrombin dilutions and HSA dilutions at the same respective concentrations of Compounds 1, 2 and 3 above. Similarly, Compound 4 was then subjected to the same conditions as Compounds 1, 2 and 3, and analyzed with an SLM instrument to determine anisotropy values as described in Example 4 below.

The target of a further series is neutrophil elastase (Homo sapiens, UniProt P08246 P08246:30-267). Kind of series: FP; 150 mM NaCl, 2 mM MgCl2, 6 mM KCl, 10 mM Tris, pH 7.0, room temperature; delta mP +30. Particulars: tags: Athens Research Technology; label: 5'-fluorescein (6-FAM, C6 linker). The procedure: An elastase solution was prepared from human neutrophil elastase (Athens Research Technology) at 180 nM for the highest concentration in a buffer of 150 mM NaCl, 2 mM MgCl_2, 6 mM KCl, 10 mM TRIS, pH 7.0. Serial dilutions of this solution were then prepared to give a range of concentrations from 0.027 nM to 180 nM.
Sequence of neutrophil elastase (P08246 30-267, one chain of several): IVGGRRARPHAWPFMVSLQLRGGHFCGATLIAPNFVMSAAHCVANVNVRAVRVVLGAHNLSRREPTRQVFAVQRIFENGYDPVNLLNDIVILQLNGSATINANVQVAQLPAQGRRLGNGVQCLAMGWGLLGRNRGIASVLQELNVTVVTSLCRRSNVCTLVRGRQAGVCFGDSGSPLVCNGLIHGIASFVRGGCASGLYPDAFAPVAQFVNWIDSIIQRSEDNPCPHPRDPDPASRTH
as §1

Series [7] concerns the target T2, serum albumin (HSA). Kind of series: FP; HSA up to 247 nM; anisotropy 0.04429 free, 0.04433 with HSA. Particulars: tags: Sigma; label: 5'-fluorescein (6-FAM, C6 linker).
Series [8] has as its target T1, alpha-thrombin. Kind of series: FP; 140 mM NaCl, 20 mM Tris acetate, 1 mM CaCl2, 5 mM KCl, 1 mM MgCl2, pH 7.4, room temperature; delta mP +52.
The target of series [9] is T1, alpha-thrombin. Kind of series: FP; 140 mM NaCl, 20 mM Tris acetate, 1 mM CaCl2, 5 mM KCl, 1 mM MgCl2, pH 7.4, room temperature; delta mP +25.
The target in series [10] is T2, serum albumin (HSA). Put plainly: FP; HSA up to 150 nM. The conditions noted are these: tags: Sigma; label: 5'-fluorescein (6-FAM, C6 linker). The procedure:
as §1

B1: Compound 3 (ssDNA)
DNA: GGTTGGTGTGGTTGG
In turn, B1 returned a Kd with alpha-thrombin [1] of 5.7 nM. For the same molecule, the binding result with serum albumin (HSA) [2] was “no binding”.

B2: Compound 6 (ssDNA)
DNA: GGTTGGTGTGGTTGG
modifications: PS between G6 and T7
In the series with alpha-thrombin [3], B2 registered a Kd of 11.1 nM. For the same molecule, the binding result with serum albumin (HSA) [4] is given as “no binding”.

B3: Compound 4 (scrambled control) (ssDNA)
DNA: GGTGGTGGTTGTGGT
For the molecule B3, the binding result with alpha-thrombin [5] and with serum albumin (HSA) [6] was “no binding” each time.

B4: Compound 5 (ssDNA)
DNA: TAGCGATACTGCGTGGGTTGGGGCGGGTAGGGCCAGCAGTCTCGT
In turn, B4 had a Kd with neutrophil elastase of 2.6 nM.

B5: Compound 1 (ssDNA)
DNA: GGTTGGTGTGGTTGG
For B5, the binding result with serum albumin (HSA) [7] is recorded as “no binding”. In addition, in the series with alpha-thrombin [8], the Kd was determined as 2 nM.

B6: Compound 2 (ssDNA)
DNA: CAGTCCGTGGTAGGGCAGGTTGGGGTGACTTCGTGGAA
Regarding B6, binding in the series with alpha-thrombin [9] was put at a Kd of 1.5 nM. Further, the binding result with serum albumin (HSA) [10] is recorded as “no binding”.

These data come from patent US5641629, “Spectroscopically detectable nucleic acid ligands”.
